This assay concerns the target VEGF receptor 1 (human, UniProt P17948 27-1338). The assay can be described thus: cell-based or functional assay.

* marks the point of attachment. Palmitoyl = CCCCCCCCCCCCCCCC(=O)*

Sequence of VEGF receptor 1 (P17948 27-1338): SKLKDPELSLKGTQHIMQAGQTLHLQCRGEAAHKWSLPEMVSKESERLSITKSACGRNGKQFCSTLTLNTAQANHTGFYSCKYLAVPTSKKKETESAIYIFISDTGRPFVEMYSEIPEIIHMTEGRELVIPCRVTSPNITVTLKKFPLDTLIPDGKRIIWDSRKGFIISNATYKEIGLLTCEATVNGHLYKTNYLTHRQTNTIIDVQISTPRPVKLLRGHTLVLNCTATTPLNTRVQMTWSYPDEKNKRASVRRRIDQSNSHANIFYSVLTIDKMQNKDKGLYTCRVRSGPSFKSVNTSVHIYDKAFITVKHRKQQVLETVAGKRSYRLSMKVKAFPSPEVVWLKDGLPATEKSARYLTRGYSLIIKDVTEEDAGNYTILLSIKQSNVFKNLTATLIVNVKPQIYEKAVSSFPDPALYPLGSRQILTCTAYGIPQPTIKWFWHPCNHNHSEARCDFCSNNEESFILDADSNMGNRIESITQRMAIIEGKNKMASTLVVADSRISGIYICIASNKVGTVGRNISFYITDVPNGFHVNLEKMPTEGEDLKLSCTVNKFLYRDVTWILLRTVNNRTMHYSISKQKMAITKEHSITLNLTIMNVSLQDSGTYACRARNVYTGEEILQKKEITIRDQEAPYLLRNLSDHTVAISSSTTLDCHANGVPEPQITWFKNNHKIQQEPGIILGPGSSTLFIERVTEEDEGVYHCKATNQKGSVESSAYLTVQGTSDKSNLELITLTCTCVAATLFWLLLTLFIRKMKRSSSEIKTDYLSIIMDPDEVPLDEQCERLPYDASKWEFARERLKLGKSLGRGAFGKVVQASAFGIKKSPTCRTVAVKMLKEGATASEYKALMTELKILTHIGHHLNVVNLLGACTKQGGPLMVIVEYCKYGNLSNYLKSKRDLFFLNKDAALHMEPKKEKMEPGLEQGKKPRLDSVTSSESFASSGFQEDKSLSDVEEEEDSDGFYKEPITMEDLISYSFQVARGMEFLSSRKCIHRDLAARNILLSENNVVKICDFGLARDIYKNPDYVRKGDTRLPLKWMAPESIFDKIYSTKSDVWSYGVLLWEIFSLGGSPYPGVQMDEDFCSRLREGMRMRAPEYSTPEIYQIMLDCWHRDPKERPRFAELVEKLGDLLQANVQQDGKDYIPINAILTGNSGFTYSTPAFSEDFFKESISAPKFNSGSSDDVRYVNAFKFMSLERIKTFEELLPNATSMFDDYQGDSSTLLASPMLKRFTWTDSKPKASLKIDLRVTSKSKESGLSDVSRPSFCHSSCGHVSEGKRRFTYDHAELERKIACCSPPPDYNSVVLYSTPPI

The molecule “Native VEGF (from UniProt P15692 27-191) (ligand)” had an amount of phosphorylated VEGFR1 relative to untreated control (sandwich ELISA on HUVEC lysates, 100 ng/ml, 2 min) (fold of untreated control) of 1.31.

B1: VEGF-PA (CH3(CH2)14C(O)-VVAAKKKGKLTWQELYQLKYKGI-NH2) (peptide)
peptide: Palmitoyl-VVAAKKKGKLTWQELYQLKYKGI-NH2
SMILES: CCCCCCCCCCCCCCCC(=O)N[C@H](C(=O)N[C@H](C(=O)N[C@@H](C)C(=O)N[C@@H](C)C(=O)N[C@@H](CCCCN)C(=O)N[C@@H](CCCCN)C(=O)N[C@@H](CCCCN)C(=O)NCC(=O)N[C@@H](CCCCN)C(=O)N[C@@H](CC(C)C)C(=O)N[C@H](C(=O)N[C@@H](Cc1c[nH]c2ccccc12)C(=O)N[C@@H](CCC(N)=O)C(=O)N[C@@H](CCC(=O)O)C(=O)N[C@@H](CC(C)C)C(=O)N[C@@H](Cc1ccc(O)cc1)C(=O)N[C@@H](CCC(N)=O)C(=O)N[C@@H](CC(C)C)C(=O)N[C@@H](CCCCN)C(=O)N[C@@H](Cc1ccc(O)cc1)C(=O)N[C@@H](CCCCN)C(=O)NCC(=O)N[C@H](C(N)=O)[C@@H](C)CC)[C@@H](C)O)C(C)C)C(C)C
As for B1, the “amount of phosphorylated VEGFR1 relative to untreated control (sandwich ELISA on HUVEC lysates, 1 uM, 2 min)” value is 1.63 fold of untreated control.

In the case of Ac-KLTWQELYQLKYKGI-NH2 [VEGF peptide (Ac-KLTWQELYQLKYKGI-NH2)], the “amount of phosphorylated VEGFR1 relative to untreated control (sandwich ELISA on HUVEC lysates, 1 uM, 2 min)” value was 1.33 fold of untreated control.

B2: mutant PA (CH3(CH2)14C(O)-VVAAKKKGKLTAQELVFLKVKGI-NH2) (peptide)
peptide: Palmitoyl-VVAAKKKGKLTAQELVFLKVKGI-NH2
SMILES: CCCCCCCCCCCCCCCC(=O)N[C@H](C(=O)N[C@H](C(=O)N[C@@H](C)C(=O)N[C@@H](C)C(=O)N[C@@H](CCCCN)C(=O)N[C@@H](CCCCN)C(=O)N[C@@H](CCCCN)C(=O)NCC(=O)N[C@@H](CCCCN)C(=O)N[C@@H](CC(C)C)C(=O)N[C@H](C(=O)N[C@@H](C)C(=O)N[C@@H](CCC(N)=O)C(=O)N[C@@H](CCC(=O)O)C(=O)N[C@@H](CC(C)C)C(=O)N[C@H](C(=O)N[C@@H](Cc1ccccc1)C(=O)N[C@@H](CC(C)C)C(=O)N[C@@H](CCCCN)C(=O)N[C@H](C(=O)N[C@@H](CCCCN)C(=O)NCC(=O)N[C@H](C(N)=O)[C@@H](C)CC)C(C)C)C(C)C)[C@@H](C)O)C(C)C)C(C)C
B2: the “amount of phosphorylated VEGFR1 relative to untreated control (sandwich ELISA on HUVEC lysates, 1 uM, 2 min)” value was 0.931 fold of untreated control.

The values are drawn from patent US20130101628A1 (NORTHWESTERN UNIVERSITY, priority 2011, published 2013).
